The term Kd denotes a measure of binding affinity in units of concentration.

The labels stand for the following.
B1: scFv; the commonest letter at each place (parent)
chain 1: EVKLDETGGGLVQPGRPMKLSCVASGFTFSDYWMNWVRQSPEKGLEWVAQIRNKPYNYETYYSDSVKGRFTISRDDSKSSVYLQMNNLRVEDMGIYYCTGSYYGMDYWGQGTSVTVS
chain 2: DVVMTQTPLSLPVSLGDQASISCRSSQSLVHSNGNTYLRWYLQKPGQSPKVLIYKVSNRFSGVPDRFSGSGSGTDFTLKISRVEAEDLGVYFCSQSTHVPWTFGGGTKLEIK

Variants of B1 are the subject of data set [1]. The data set is described as follows: Kd (Tite-Seq). The conditions noted are these: with fluorescein; format: scFv 4-4-20, heavy + light.
The variants in data set [2] derive from B1. The data set is described as follows: yeast surface expression (ratio to wild type); higher = more expressed. The conditions noted are these: format: scFv 4-4-20, heavy + light.

As for chain 1 EVKLDETGGGLVQPGRPMKLSCVASGFSFSDSWMNWVRQSPEKGLEWVAQIRNKPYNYETYYSDSVKGRFTISRDDSKSSVYLQMNNLRVEDMGIYYCTGSYYGMDYWGQGTSVTVS chain 2 DVVMTQTPLSLPVSLGDQASISCRSSQSLVHSNGNTYLRWYLQKPGQSPKVLIYKVSNRFSGVPDRFSGSGSGTDFTLKISRVEAEDLGVYFCSQSTHVPWTFGGGTKLEIK [chain 1 T28S Y32S], in data set [1], the equilibrium dissociation constant (Kd) came to 0.266 µM. Besides, the yeast surface expression in data set [2] came out at 0.966.
For chain 1 EVKLDETGGGLVQPGRPMKLSCVASGFSFSDYSMNWVRQSPEKGLEWVAQIRNKPYNYETYYSDSVKGRFTISRDDSKSSVYLQMNNLRVEDMGIYYCTGSYYGMDYWGQGTSVTVS chain 2 DVVMTQTPLSLPVSLGDQASISCRSSQSLVHSNGNTYLRWYLQKPGQSPKVLIYKVSNRFSGVPDRFSGSGSGTDFTLKISRVEAEDLGVYFCSQSTHVPWTFGGGTKLEIK [chain 1 T28S W33S], in that order: not below 10 µM and 0.919.
On to chain 1 EVKLDETGGGLVQPGRPMKLSCVASGFSFSDYFMNWVRQSPEKGLEWVAQIRNKPYNYETYYSDSVKGRFTISRDDSKSSVYLQMNNLRVEDMGIYYCTGSYYGMDYWGQGTSVTVS chain 2 DVVMTQTPLSLPVSLGDQASISCRSSQSLVHSNGNTYLRWYLQKPGQSPKVLIYKVSNRFSGVPDRFSGSGSGTDFTLKISRVEAEDLGVYFCSQSTHVPWTFGGGTKLEIK [chain 1 T28S W33F], for which the Kd in data set [1] stood at 1.02 µM. Besides, the yeast surface expression in data set [2] was found to be 0.903.
For chain 1 EVKLDETGGGLVQPGRPMKLSCVASGFSFSDYWMNWSRQSPEKGLEWVAQIRNKPYNYETYYSDSVKGRFTISRDDSKSSVYLQMNNLRVEDMGIYYCTGSYYGMDYWGQGTSVTVS chain 2 DVVMTQTPLSLPVSLGDQASISCRSSQSLVHSNGNTYLRWYLQKPGQSPKVLIYKVSNRFSGVPDRFSGSGSGTDFTLKISRVEAEDLGVYFCSQSTHVPWTFGGGTKLEIK [chain 1 T28S V37S], in that order: 0.00785 µM and 0.757.
Regarding chain 1 EVKLDETGGGLVQPGRPMKLSCVASGFSFSDFWMNHVRQSPEKGLEWVAQIRNKPYNYETYYSDSVKGRFTISRDDSKSSVYLQMNNLRVEDMGIYYCTGSYYGMDYWGQGTSVTVS chain 2 DVVMTQTPLSLPVSLGDQASISCRSSQSLVHSNGNTYLRWYLQKPGQSPKVLIYKVSNRFSGVPDRFSGSGSGTDFTLKISRVEAEDLGVYFCSQSTHVPWTFGGGTKLEIK [chain 1 T28S Y32F W36H], the dissociation constant (Kd) in data set [1] is not below 10 µM. For the same variant, the yeast surface expression in data set [2] was 0.533.
Turning to chain 1 EVKLDETGGGLVQPGRPMKLSCVASGFSFSDYWMNRVRQSPEKGLEWVAQIRNKPYNYETYYSDSVKGRFTISRDDSKSSVYLQMNNLRVEDMGIYYCTGSYYGMDYWGQGTSVTVS chain 2 DVVMTQTPLSLPVSLGDQASISCRSSQSLVHSNGNTYLRWYLQKPGQSPKVLIYKVSNRFSGVPDRFSGSGSGTDFTLKISRVEAEDLGVYFCSQSTHVPWTFGGGTKLEIK [chain 1 T28S W36R], the dissociation constant (Kd) in data set [1] was determined as 1.81 µM. Also, in data set [2], the yeast surface expression came out at 0.57.

The values above are taken from the FLAb antibody collection (doi:10.7554/elife.23156).
